The record followed here is the supplement of paper PMC12042874.

± gives the uncertainty stated by the source.

The data set is described as follows: amyloid nucleation score (Sup35N fusion, yeast selection) (log enrichment); library NNK2; higher = more nucleation; inactive = no reads after selection. The method in brief: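 The nucleation score is a DiMSum log enrichment of output over input reads, centred on the mode score of non-aggregating sequences. Sequences under 100 input reads were excluded, and reads came from Illumina sequencing of plasmid inserts. Psi-negative yeast expressing Sup35N fused to peptides of 20 random codons were induced with 100 μM copper sulfate for 24 hours and grown 7 days at 30°C on medium lacking adenine and uracil. Random libraries had three technical output replicates.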
In turn, GFLFMVMRSQLRCVYINKY gave an amyloid nucleation score of 1.61 ± 0.15.
GFLNLCRSTSRELMCEMYSA returned an amyloid nucleation score of -0.651 ± 1.1.
To GFMFVFWKFKHGLMGPCSRD belongs 0.684 ± 0.23; to GFRFSVIGI, -0.101 ± 0.63.
GFSRRGELHVSVYHIRDNVR returned an amyloid nucleation score of -1.11 ± 1.1.
In the case of GFTLEAKDWSTG it was 0.778 ± 0.43; in that of GFVDELLNKRRLMCLIKTWK, 0.179 ± 0.44; in that of GGDDVEDMYALGPNFFEGG, 0.627 ± 0.66.
To GGDLNHHFAWTTNKMHDERR belongs 4.537 ± 0.038; to GGERMRSRKYEYGGWNMCYY, “inactive”.
To GGGAAPNPTDYKSILLLC belongs 0.17 ± 0.34.
For the substance GGMLPYVVITFETFMPRCMN, the amyloid nucleation score is -1.7 ± 0.75.
To GGMVVPGKYRDRGY belongs -0.227 ± 0.26; to GGTSLRNTLGICLNYLQS, “inactive”.
In the case of GGVIVQYLPFSNYLRKQGSL it was -0.304 ± 0.39; in that of GGYSLWF, 0.292 ± 0.23; in that of GHIMKCGATRQYHCEDP, -0.614 ± 0.79.
Turning to GHMQYSYFLDLYSKLFCVFN, the amyloid nucleation score came out at 4.52 ± 0.062.
To GHNATNVGHIMFFITTWCCY belongs 8.955 ± 0.047.
To GHSCLMVNNACSLDGHEESV belongs 1.16 ± 0.39; to GIGAQINHSVPLRGGKPRAL, -0.406 ± 1.1; to GIKYRSQCGCASDVCIKCRS, -0.054 ± 1.1.
Turning to GINRKDKMSKCTDLVVFCLG, the amyloid nucleation score was -0.076 ± 0.33.
In the case of GINVSYLFIPHVGKICGNYN it was 7.151 ± 0.047.
To GIQVNYRWLGFGVGKRKARL belongs 5.547 ± 0.043.
To GISCYLRVHTSANDESCSER belongs 0.426 ± 0.8; to GISCYMAPSGCRHNSVMSLW, 0.611 ± 0.5.
Take GIVVFINEMLTNTNPGKS: the amyloid nucleation score amounted to 6.954 ± 0.039.
In the case of GIYGSGIAFRRSGGWWEVCS it was “inactive”; in that of GIYNVLS, -0.108 ± 1.1; in that of GKFLCDV, 0.775 ± 0.31.
In the case of GLAEYRS it was -0.488 ± 0.64; in that of GLFVRQGGLRVCWVLPVHAA, 0.645 ± 0.41; in that of GLLGAVDRTVR, 0.238 ± 0.56.
In the case of GLLKTQ it was -0.087 ± 0.31.
Take GLLTGITILIVVDSCLGVCF: the amyloid nucleation score was found to be 3.99 ± 0.095.
Consider GLLVLLLETCWKLVSFDLRK, for which the amyloid nucleation score amounted to 0.561 ± 0.39.
To GLLVSGMINWYRVFIRNILL belongs -0.606 ± 0.38; to GLMAWR, 0.154 ± 0.37; to GLNVHVVRLGIQLFFKWNDI, 1.74 ± 0.18.
In the case of GLNVLCSLAIKAKLDGRWRH it was 9.371 ± 0.072; in that of GLRELS, -0.874 ± 0.55.
For GLSLLRGTNSGSAARLGANG, the amyloid nucleation score is 0.452 ± 0.32.
To GLTVHTVWLA belongs 0.189 ± 0.4.
To GLVRPLSLMVETANAVHG belongs 1.39 ± 0.35; to GMDSFPFCMCRDCPYWGYDM, -0.745 ± 0.32; to GMLEGCRHHGIGWKGYACGQ, 2.94 ± 0.087.
In the case of GMSQAIVGVICSGIYLPEVR, the amyloid nucleation score was 0.44 ± 0.37.
In the case of GMSYGESWIGTNLAGRVRAL, the amyloid nucleation score is 1.29 ± 0.31.
In turn, GNGRHC registered an amyloid nucleation score of -0.021 ± 0.21.
To GNIMSFSFMPDLGISFCPGC belongs 6.515 ± 0.049.
To GNKMGCLFIGYCGFCTTVRP belongs 1.74 ± 0.15; to GNLVC, 0.821 ± 0.19.
To GNRDSLNMFVCDRILRCPVQ belongs -0.273 ± 0.33; to GNRFPRPSPQGIIYKLLLFR, 2.92 ± 0.11.
Substance GNTGCGVRACSGVCGKMDLV showed an amyloid nucleation score of 0.8 ± 0.27.
In the case of GNVGTRPQINTGSVCYMSCI it was 4.6 ± 0.057; in that of GNVLTVIKAKDGS, -0.606 ± 0.49.
In the case of GNWMRYIFSKWARLWGWKTY it was “inactive”; in that of GNYISICESFF, -0.177 ± 1.
As for GPIWCRS, the amyloid nucleation score was -0.467 ± 0.74.
Turning to GPLLVIWVRTLGRELG, the amyloid nucleation score was 0.841 ± 0.26.
To GPWAAVVRGFCPKGDKRSCG belongs -0.304 ± 0.41; to GRASMRACWVKMFYWFW, 0.981 ± 0.18; to GRDPGNDEIDKLALSWRLMG, 0.657 ± 0.32.
In the case of GRKISNCCQCWCHGL it was 7.72 ± 0.042.
GRKLMWSRF: the amyloid nucleation score was 0.004 ± 0.45.
In the case of GRNPVFWWQVLVATSRLNGQ it was 1.05 ± 0.32.
To GSASLCNSAERVYV belongs 0.681 ± 0.55.
In the case of GSDQNSCELSRRDIKKCMAL it was 0.504 ± 0.33.
In turn, GSELMTSLSFVCGHVAAPAD had an amyloid nucleation score of 0.669 ± 0.54.
In the case of GSEMIFYIAVVALCLCIPEG it was 1.21 ± 0.22; in that of GSGNPGMSIFVKIY, -1.16 ± 0.62; in that of GSGSVAEIMRNVFLVCSW, -0.115 ± 0.34.
To GSLAGAKL belongs -0.588 ± 0.76; to GSLGASVSNFGVAYSLCATR, -0.359 ± 0.65.
In the case of GSLMHEFAH it was -0.698 ± 0.78; in that of GSMITCFVSDTLYKTVMVKL, 0.373 ± 0.54; in that of GSPWGSHGRHGLKHTKALKA, 1.1 ± 0.25.
In the case of GTFKDGMDSA, the amyloid nucleation score was determined as 3.75 ± 0.14.
With GTLFIRSPYFCL, the amyloid nucleation score was -0.478 ± 0.61.
For GTMLMGVE, the amyloid nucleation score turned out to be 0.449 ± 0.8.
The substance GTRYLRVSFNCAVRV returned an amyloid nucleation score of 1.22 ± 0.69.
In the case of GTSWTVTID it was 0.537 ± 0.18; in that of GTTVMGGILVLDGQALIGSM, 1.06 ± 0.28; in that of GVASMSRRARSHKMGGWMGR, 1.05 ± 0.41.
In the case of GVCPTVVCPHYIDVRML it was 0.16 ± 0.55; in that of GVCVI, 0.775 ± 0.4.
To GVCVKRFFKLVTAGECNSKG belongs -0.13 ± 0.4.
GVEVKSNVWTVSGWESQTPQ came in with an amyloid nucleation score of 1.89 ± 0.42.
In the case of GVGGRVWTC it was -0.998 ± 0.76.
To GVGHFFLIQINKMCPHMRMA belongs 2.98 ± 0.13; to GVIRILWDECRTSDYFGCGT, 0.047 ± 0.26.
To GVISYMTSRGRGLSNNMSNW belongs -0.15 ± 0.56.
Substance GVIWTRAVANCIVLSGMS registered an amyloid nucleation score of -0.149 ± 0.55.
Consider GVKRYDVHM, for which the amyloid nucleation score was -0.244 ± 0.48.
To GVLMIYYWVSMCLYALLIVF belongs “inactive”; to GVPLLLRMTCSLCRIAFQE, 4.28 ± 0.069; to GVPYFLRW, -1.32 ± 0.48.
In the case of GVQTFVMTPTCKRNWLQDGR it was 0.233 ± 0.27; in that of GVRSNLSYNIFVTCAMRASG, “inactive”.
In the case of GVSNNALCSNRITSLNRPML it was 0.313 ± 0.17; in that of GVTKNCSC, -0.036 ± 0.63; in that of GVTPYCKRHV, -1.14 ± 0.78.
Consider GVVFFFGKDNGRDIMSGTRY, for which the amyloid nucleation score entry was “inactive”.
To GVVLNLDTWLVDEVPDGVRM belongs 0.057 ± 0.76.
To GVVNSRYALFNCRLEFKDVL belongs 9.742 ± 0.071; to GVYNITTLLPRCVVNVVL, 7.482 ± 0.028; to GWESGALWVANFLSVRQA, 0.19 ± 0.56.
To GWLYVYDSGMFGGWNIGVDG belongs -0.131 ± 0.36.
Substance GWMQIGSVYLFSE showed an amyloid nucleation score of 7.741 ± 0.048.
As for GWTKLFGVHDSGIGCPNGVL, the amyloid nucleation score entry is “inactive”.
In the case of GWWNHGSSMGYFERVSSTFW it was “inactive”; in that of GYAADLWWVLLFYERLVSGD, 0.026 ± 0.49.
To GYKDANQNM belongs “inactive”; to GYKHLIRVQWSKTYSSTGFC, -0.356 ± 1.1.
To GYSSGFQVAVNLRSTLRQSY belongs 3.03 ± 0.068.
With GYVWDVIGKWGTLRILRVSK, the amyloid nucleation score was -0.498 ± 1.1.
Turning to HAACCASNLLWGRFFWSCAD, the amyloid nucleation score turned out to be 2.74 ± 0.084.
With HCAEHQPASGVLVTGYWDLG, the amyloid nucleation score is 0.444 ± 0.54.
In the case of HCGVLVDISFEHALIFR it was -1.99 ± 0.78; in that of HCLFSGYYLKLN, “inactive”; in that of HCTWSQPPSS, -0.001 ± 0.5.
To HDGCGPCSHWTGSQFTFRSS belongs 2.2 ± 0.11; to HDINRMG, 0.391 ± 0.54; to HDRIFSIKSWWCRSIWEVGV, -1.79 ± 0.78.
Substance HDRVIRQN gave an amyloid nucleation score of 0.084 ± 0.26.
To HDYFTYT belongs 4.83 ± 0.059; to HFETGGIS, 0.447 ± 0.57.
To HFIGVD belongs -0.156 ± 0.28.
To HFMFVSNRVGWVGLLQNYSR belongs 6.657 ± 0.066; to HFRVYSWIQVK, 0.337 ± 0.49; to HFTYGSSFIL, 3.53 ± 0.069.
HFVFI: the amyloid nucleation score was -1.05 ± 1.1.
To HGDAKFGSVVGAFQDLYS belongs 1.29 ± 0.39; to HGHASFIRF, 2.13 ± 0.2; to HGNWGLLYLTDALVKMIQDV, -0.311 ± 0.3.
In the case of HGQARWGR it was 1.47 ± 0.28; in that of HGTCISSGNKWARWTLS, 0.355 ± 0.65; in that of HGYSNNTSWAYI, 0.436 ± 0.65.
In the case of HHLKGPSQPSIVEIFE it was -0.081 ± 0.31; in that of HHSELFIIITYFG, 0.206 ± 0.5.
